Legend:
NSF S460E mutant = NSF S460E mutant (Chinese hamster, UniProt P18708 1-744, S460E); assay: far-Western, overlay or dot blot
NSF T461E mutant = NSF T461E mutant (Chinese hamster, UniProt P18708 1-744, T461E); assay: far-Western, overlay or dot blot
Sequence of NSF T461E mutant (P18708 whole entry T461E): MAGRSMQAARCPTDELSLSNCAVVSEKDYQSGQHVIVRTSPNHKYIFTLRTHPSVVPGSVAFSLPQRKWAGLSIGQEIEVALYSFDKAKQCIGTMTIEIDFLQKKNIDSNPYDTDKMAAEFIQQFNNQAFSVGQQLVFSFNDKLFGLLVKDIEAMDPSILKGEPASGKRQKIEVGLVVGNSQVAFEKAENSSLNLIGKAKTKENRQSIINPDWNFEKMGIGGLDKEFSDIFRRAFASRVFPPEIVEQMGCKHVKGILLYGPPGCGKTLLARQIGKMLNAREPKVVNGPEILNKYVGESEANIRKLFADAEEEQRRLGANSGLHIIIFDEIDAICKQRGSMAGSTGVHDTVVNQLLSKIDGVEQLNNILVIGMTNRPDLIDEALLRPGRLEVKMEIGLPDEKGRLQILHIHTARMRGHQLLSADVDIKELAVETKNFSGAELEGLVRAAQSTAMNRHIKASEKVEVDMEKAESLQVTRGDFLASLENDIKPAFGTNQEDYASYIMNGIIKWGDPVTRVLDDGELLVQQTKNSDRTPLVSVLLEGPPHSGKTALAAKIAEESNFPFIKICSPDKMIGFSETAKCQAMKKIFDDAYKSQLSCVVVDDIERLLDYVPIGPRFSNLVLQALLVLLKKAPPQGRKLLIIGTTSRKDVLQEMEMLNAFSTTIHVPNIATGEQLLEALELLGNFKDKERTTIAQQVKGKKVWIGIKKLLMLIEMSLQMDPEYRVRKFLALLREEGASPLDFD

Sequence of NSF S460E mutant (P18708 whole entry S460E): as the sequence (P18708 whole entry T461E) above, with S460E, E461T counted along it

B1: human recombinant PKCε (Invitrogen) (enzyme, UniProt Q02156 1-737, looked up)
chain: MVVFNGLLKIKICEAVSLKPTAWSLRHAVGPRPQTFLLDPYIALNVDDSRIGQTATKQKTNSPAWHDEFVTDVCNGRKIELAVFHDAPIGYDDFVANCTIQFEELLQNGSRHFEDWIDLEPEGRVYVIIDLSGSSGEAPKDNEERVFRERMRPRKRQGAVRRRVHQVNGHKFMATYLRQPTYCSHCRDFIWGVIGKQGYQCQVCTCVVHKRCHELIITKCAGLKKQETPDQVGSQRFSVNMPHKFGIHNYKVPTFCDHCGSLLWGLLRQGLQCKVCKMNVHRRCETNVAPNCGVDARGIAKVLADLGVTPDKITNSGQRRKKLIAGAESPQPASGSSPSEEDRSKSAPTSPCDQEIKELENNIRKALSFDNRGEEHRAASSPDGQLMSPGENGEVRQGQAKRLGLDEFNFIKVLGKGSFGKVMLAELKGKDEVYAVKVLKKDVILQDDDVDCTMTEKRILALARKHPYLTQLYCCFQTKDRLFFVMEYVNGGDLMFQIQRSRKFDEPRSRFYAAEVTSALMFLHQHGVIYRDLKLDNILLDAEGHCKLADFGMCKEGILNGVTTTTFCGTPDYIAPEILQELEYGPSVDWWALGVLMYEMMAGQPPFEADNEDDLFESILHDDVLYPVWLSKEAVSILKAFMTKNPHKRLGCVASQNGEDAIKQHPFFKEIDWVLLEQKKIKPPFKPRIKTKRDVNNFDQDFTREEPVLTLVDEAIVKQINQEEFKGFSYFGEDLMP
- binding result (NSF S460E mutant): binds
- binding result (NSF T461E mutant): binds

— PMC2994917 (The Journal of neuroscience : the official journal of the …, 2010)
